{"source": "paper PMC9334538", "about": "(2022)", "binders": {"B1": {"name": "aRBD-5-Fc (Fc fusion)", "chain": "QVQLVESGGGLVQPGGTLRLSCAASGFTLDYYAIGWFRQAPGKEREGVSCISGSGGITNYTDSVKGRFTISRDNAKNTVYLQMNSLKPEDTAVYYCAPVSHTVVAGCAFEAWTDFGSWGQGTQVTVSS"}}, "target": "WT SARS-CoV-2 RBD (amino acids 321 to 591 of spike) (SARS-CoV-2, UniProt P0DTC2 321-591)", "experiment": "SPR", "data": [{"binder": "B1", "values": [{"measurement": "koff", "result": 0.0143, "unit": "s⁻¹"}]}]}
